Data as given in patent US12692303.

What was measured:
[1] = target: Human interleukin 23 (hIL-23) (human) (UniProt Q9NPF7); assay: cell-based or functional assay
[2] = target: Human interleukin 23 (hIL-23) (human) (UniProt Q9NPF7); assay: SPR, Biacore T200, antibody captured on Protein A chip, IL-23 in flow, 25 °C, 1:1 model
Natural IL-23 (human) = Natural IL-23 (human) (UniProt Q9NPF7); assay: binding ELISA, antibody coated at 1 µg/ml, IL-23 titrated, anti-His detection
Chain of Natural IL-23 (human) (Q9NPF7 20-189 limits assumed, chain 1 of 2): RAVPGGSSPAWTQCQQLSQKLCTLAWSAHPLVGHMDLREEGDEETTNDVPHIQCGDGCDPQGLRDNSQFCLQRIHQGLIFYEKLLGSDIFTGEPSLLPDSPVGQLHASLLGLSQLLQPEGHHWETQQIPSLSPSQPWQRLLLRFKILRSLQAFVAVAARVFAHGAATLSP
Chain of Natural IL-23 (human) (chain, as listed by the source limits assumed, chain 2 of 2): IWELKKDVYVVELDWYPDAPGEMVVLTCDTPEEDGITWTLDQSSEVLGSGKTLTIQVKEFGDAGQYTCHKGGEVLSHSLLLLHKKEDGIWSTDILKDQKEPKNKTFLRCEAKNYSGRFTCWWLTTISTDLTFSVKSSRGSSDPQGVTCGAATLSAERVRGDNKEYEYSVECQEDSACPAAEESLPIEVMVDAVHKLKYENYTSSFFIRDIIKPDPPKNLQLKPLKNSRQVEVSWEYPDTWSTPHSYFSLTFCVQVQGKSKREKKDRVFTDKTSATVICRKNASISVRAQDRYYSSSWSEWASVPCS

Chain of Human interleukin 23 (hIL-23) (human) (Q9NPF7 20-189 limits assumed, chain 1 of 2): as the sequence (Q9NPF7 20-189 limits assumed, chain 1 of 2) above
Chain of Human interleukin 23 (hIL-23) (human) (chain, as listed by the source limits assumed, chain 2 of 2): as the sequence (chain, as listed by the source limits assumed, chain 2 of 2) above

B1: Risankizumab (antibody, INN chains, looked up, V domains shown)
VH: QVQLVQSGAEVKKPGSSVKVSCKASGYTFTDQTIHWMRQAPGQGLEWIGYIYPRDDSPKYNENFKGKVTITADKSTSTAYMELSSLRSEDTAVYYCAIPDRSGYAWFIYWGQGTLVTVSS
VL: DIQMTQSPSSLSASVGDRVTITCKASRDVAIAVAWYQQKPGKVPKLLIYWASTRHTGVPSRFSGSGSRTDFTLTISSLQPEDVADYFCHQYSSYPFTFGSGTKLEIKR
Binder B1 has an IC50, inhibition of phosphorylation of STAT3 in HEK Blue IL-23 cells induced by IL-23 [1] of 3.51 ng/mL, an IC50, inhibition of release of IFN-γ from human NK cells induced by IL-23 [1] of 11.1 ng/mL and an IC50, inhibition of release of IL-17A from mouse spleen cells induced by IL-23 [1] of 8.43 ng/mL. For the same binder, the Kd [2] was 0.052 nM, the koff [2] was 3.7e-05 s⁻¹ and the kon [2] was 706000 M⁻¹ s⁻¹. For the same binder, the EC50 (Natural IL-23 (human)) was 1.8 ng/mL.
